Measurements as given in doi:10.1101/718155 (2019).

B1: S100B (natural protein)
chain: MSELEKAMVALIDVFHQYSGREGDKHKLKKSELKELINNELSHFLEEIKEQEVVDKVMETLDNDGDGECDFQEFMAFVAMVTTACHEFFEHE

How the values were obtained:
S100B [1] = biological target: B1; experiment: FP; direct
S100A1 [2] = experiment: ITC; 310 K
S100A9 = experiment: FP; direct
S100A3 [3] = experiment: FP; direct
S100P [4] = experiment: FP; direct
S100A8 [5] = experiment: FP; direct
S100A12 = experiment: FP; direct
S100A15 = experiment: FP; direct
S100A6 [6] = experiment: FP; direct
S100A1 [7] = experiment: FP; direct
S100A5 [8] = experiment: FP; direct
S100A14 = experiment: FP; direct
S100G = experiment: FP; direct
S100A13 = experiment: FP; direct
S100A2 [9] = experiment: FP; direct
S100A4 [10] = experiment: FP; direct
S100Z = experiment: FP; direct
S100A11 [11] = experiment: FP; direct
S100A7 = experiment: FP; direct
S100A10 [12] = experiment: FP; direct
S100B [13] = biological target: B1; experiment: FP; competitive
S100A1 [14] = experiment: FP; competitive
S100A5 [15] = experiment: FP; competitive
S100A5 [16] = experiment: ITC; 310 K
S100A3 [17] = experiment: FP; competitive
S100A8 [18] = experiment: FP; competitive
S100A6 [19] = experiment: FP; competitive
S100A2 [20] = experiment: FP; competitive
S100A4 [21] = experiment: FP; competitive
S100A11 [22] = experiment: FP; competitive
S100A10 [23] = experiment: FP; competitive
MK2 = experiment: FP; competitive
RSK1-CTKD = experiment: FP; competitive
FOR20 = experiment: FP; competitive
S100B [24] = biological target: B1; experiment: ITC; 298 K
S100B [25] = biological target: B1; experiment: ITC; 310 K
S100P [26] = experiment: FP; competitive
S100B [27] = biological target: B1; experiment: ITC; 310 K; second site
S100A1 [28] = experiment: ITC; 298 K
S100A6 [29] = experiment: ITC; 310 K

| Kd (S100B [1]) [µM] | Kd (S100A3 [3]) [µM] | Kd (S100P [4]) [µM] | Kd (S100A6 [6]) [µM] | Kd (S100A1 [7]) [µM] | Kd (S100A5 [8]) [µM] | Kd (S100A14) [µM] | Kd (S100A2 [9]) [µM] | Kd (S100A4 [10]) [µM] | Kd (S100A11 [11]) [µM] | Kd (S100B [13]) [µM] | Kd (S100A1 [14]) [µM] | Kd (S100A5 [15]) [µM] | Kd (S100A6 [19]) [µM] | Kd (S100A2 [20]) [µM] | Kd (S100A4 [21]) [µM] | Kd (S100P [26]) [µM] | Binder | also measured |
| --- | --- | --- | --- | --- | --- | --- | --- | --- | --- | --- | --- | --- | --- | --- | --- | --- | --- | --- |
| 7.7 | 25 | 4 | 27 | 2.6 | 4.6 | 71 | 5.5 | 15 | 52 | > 200 | 2.6 | 5.2 | – | – | – | – | RRLLFYKYVYKR [NCX1 (254-265) peptide] | Kd (S100A1 [2]): 6.4 µM; Kd (S100A9): 20 µM; Kd (S100A8 [5]): 56 µM; Kd (S100A12): 170 µM; Kd (S100A15): 28 µM; Kd (S100G): 24 µM; Kd (S100A13): 87 µM; Kd (S100Z): 11 µM; Kd (S100A7): 30 µM; Kd (S100A10 [12]): 53 µM |
| 16 | 0.91 | 0.93 | 1.4 | 0.38 | 0.6 | 12 | 1 | 5.9 | 2.4 | > 200 | – | 2.3 | 8.4 | 1.1 | 35 | – | VLQTWLQDLLRRGLVRAAQ [TRPM4 (129-147) peptide] | Kd (S100A5 [16]): 1.4 µM; Kd (S100A9): 21 µM; Kd (S100A8 [5]): 3.8 µM; Kd (S100A10 [12]): 17 µM; Kd (S100A3 [17]): 3.4 µM; Kd (S100A8 [18]): 13 µM; Kd (S100A11 [22]): 106 µM; Kd (S100A10 [23]): 125 µM |
| – | – | – | – | – | – | – | – | – | – | – | – | – | – | – | – | – | B1 | Kd (MK2): 3.2 µM; Kd (RSK1-CTKD): 1.2 µM; Kd (FOR20): 0.25 µM |
| – | – | – | – | – | – | – | – | – | – | – | – | – | – | – | – | – | GAMAATYSALNSSKPTPQLKPIESSILAQRRVRKLPSTTL [RSK1 (696-735) peptide] | Kd (S100B [24]): 12 µM |
| 2.3 | – | 11 | – | 8.9 | 4.7 | – | – | – | – | 1.8 | 5.2 | 5.4 | – | – | – | 4.1 | TRTKIDWNKILS [CapZ (265-276) peptide] | Kd (S100B [25]): 3.9 µM; Kd (S100B [27]): 0.94 µM |
| > 200 | – | 38 | 8.7 | – | 42 | – | 102 | 42 | – | – | – | 40 | 20 | – | 11 | – | SEGLMNVLKKIYEDG [SIP (188-202) peptide] | Kd (S100A5 [16]): 21 µM |
| 4.7 | 5.5 | 0.99 | 0.58 | 0.033 | 5.8 | 98 | 0.057 | 0.026 | 49 | 2.9 | 0.004 | 2.9 | 0.21 | 0.013 | 0.0088 | 0.14 | RKLQRELEDATETADAMNREVSSLKNKLRRGDLPFVVPRRMARK [NMIIA (1894-1937) peptide] | Kd (S100A1 [28]): 0.009 µM; Kd (S100A15): 17 µM; Kd (S100G): 21 µM; Kd (S100A7): 13.1 µM |
| – | – | – | – | – | – | – | – | – | – | 1.2 | 0.35 | 0.56 | 0.0056 | 0.081 | 0.048 | 0.066 | MAATAAAVVAEEDTELRDLLVQTLENSGVLNRIKAELRAAVFLALEEQ [FOP (1-48) peptide] | Kd (S100A6 [29]): 0.088 µM; Kd (S100A3 [17]): 0.27 µM |
| 0.2 | – | – | – | 91 | 61 | – | 49 | – | – | 0.15 | 35 | 65 | – | 53 | – | – | NQVRPKLPLLKILHAAGAQ [MDM4 (25-43) peptide] | Kd (S100B [25]): 0.71 µM; Kd (S100B [27]): 0.63 µM |
